Values quoted from earlier work in patent publication US20080181869A1, “THERAPEUTICS TO FACILITATE CELL TRANSPLANTATION FOR LIVER DISEASE” (priority 2006, published 2008).

How the values were obtained:
lung fibroblasts = details: in vitro
gene for TGF-β1 = details: bleomycin-induced model of lung fibrosis, exogenous interferon-γ
[1] = system: hepatic stellate cells (HSCs); details: rat CCl4 model of liver damage
[2] = system: rat model of hypertension
[3] = in vivo
liver = details: after hepatic resection
tumor cell = details: in vitro or in vivo studies

interferon-γ: interferon that inhibits proliferation of lung fibroblasts
proliferation of lung fibroblasts (lung fibroblasts): inhibits the proliferation of lung fibroblasts in a dose-dependent manner | synthesis of protein in fibroblasts (lung fibroblasts): reduces the synthesis of protein in fibroblasts | transcription of the gene for TGF-β1 (gene for TGF-β1): down-regulated

relaxin
collagen deposition by hepatic stellate cells [1]: inhibit collagen deposition | cardiac and renal fibrosis [2]: reversing cardiac and renal fibrosis | adverse events [3]: few adverse events

B1: follistatin: peptide inhibitor of Activin A, a member of the transforming growth factor-beta superfamily (protein, UniProt P19883 30-344, looked up)
Follistatin: GNCWLRQAKNGRCQVLYKTELSKEECCSTGRLSTSWTEEDVNDNTLFKWMIFNGGAPNCIPCKETCENVDCGPGKKCRMNKKNKPRCVCAPDCSNITWKGPVCGLDGKTYRNECALLKARCKEQPELEVQYQGRCKKTCRDVFCPGSSTCVVDQTNNAYCVTCNRICPEPASSEQYLCGNDGVTYSSACHLRKATCLLGRSIGLAYEGKCIKAKSCEDIQCTGGKKCLWDFKVGRGRCSLCDELCPDSKSDEPVCASDNATYASECAMKEAACSSGVLLEVKHSGSCNSISEDTEEEEEDEDQDYSFPISSILEW
reduction in fibrosis (CCl4-exposed rats; CCl4-exposed rats treated with the peptide): 32% | decrease in hepatocyte apoptosis (CCl4-exposed rats; CCl4-exposed rats, during treatment): 87% | time of maximal effect on hepatocyte apoptosis (CCl4-exposed rats; week of follistatin treatment): 4 week | TGF-β-induced secretion of collagen from HSC (HSC): inhibit TGF-β-induced secretion of collagen | liver weight (liver): significantly increases liver weight | tumor cell growth (tumor cell): did not accelerate tumor cell growth
